# Source: publication PMC6208348
# Where two headings read alike, the source gives them in different places.
# How the values were obtained:
# Shc1-pTyr317 = test: FP
# [1] = molecular target: DnaJ-A1-pTyr381 ∆C peptide (human) (UniProt P31689); test: FP
# VCP-pTyr805-tail7 = test: FP
# [2] = molecular target: DnaJ-A1-pTyr381 ∆N peptide (human) (UniProt P31689); test: FP
# Shc1-pTyr239 = test: FP
# EGFR-pTyr954 = test: FP
# EGFR-pTyr1086 = test: FP
# mini peptide GGpYGG = test: fluorescence polarisation
# MidT-pTyr324 = test: FP; conditions: natural protein
substance,measurement,setting,value
L. anisa LeSH1b (Lani_2495),Kd,Shc1-pTyr317; natural protein,> 50 µM
same,Kd,[1]; natural protein,> 50 µM
same,Kd,VCP-pTyr805-tail7; natural protein,> 50 µM
same,Kd,[2]; natural protein,> 50 µM
same,Kd,Shc1-pTyr239; natural protein,> 50 µM
L. anisa LeSH2a (Lani_0711),Kd,EGFR-pTyr954; natural protein,7.98 µM
same,Kd,VCP-pTyr805-tail7; natural protein,2.53 µM
same,Kd,Shc1-pTyr239; natural protein,3.05 µM
L. anisa LeSH2b (Lani_WP_019234638),Kd,EGFR-pTyr954; natural protein,> 50 µM
same,Kd,Shc1-pTyr317; natural protein,40.6 µM
same,Kd,[1]; natural protein,16.5 µM
same,Kd,VCP-pTyr805-tail7; natural protein,31.2 µM
same,Kd,[2]; natural protein,22.6 µM
same,Kd,Shc1-pTyr239; natural protein,38.1 µM
same,Kd,EGFR-pTyr1086; natural protein,> 50 µM
L. dumoffii LUSH (natural protein),Kd,mini peptide GGpYGG,0.38 µM
L. dumoffii LeSH1a,Kd,Shc1-pTyr317; natural protein,> 50 µM
same,Kd,MidT-pTyr324,> 50 µM
same,Kd,[1]; natural protein,> 50 µM
same,Kd,VCP-pTyr805-tail7; natural protein,> 50 µM
same,Kd,[2]; natural protein,> 50 µM
same,Kd,Shc1-pTyr239; natural protein,> 50 µM
L. dumoffii LeSH2,Kd,Shc1-pTyr317; natural protein,9.35 µM
same,Kd,VCP-pTyr805-tail7; natural protein,9.1 µM
same,Kd,Shc1-pTyr239; natural protein,2.46 µM
same,Kd,EGFR-pTyr1086; natural protein,14.7 µM
L. dumoffii LeSH2 (natural protein),Kd,mini peptide GGpYGG,14.7 µM
L. longbeachae LeSH (natural protein),Kd,mini peptide GGpYGG,3.6 µM
L. pneumophila DoSH C-SH2,Kd,[2],31.9 µM
same,Kd,EGFR-pTyr1086,12.5 µM
L. pneumophila LeSH2,Kd,EGFR-pTyr954,44.6 µM
same,Kd,Shc1-pTyr317,8.77 µM
same,Kd,[1],1.09 µM
same,Kd,Shc1-pTyr239,3.66 µM
same,Kd,EGFR-pTyr1086,31.4 µM
L. waltersii LeSH5 tandem SH2,Kd,Shc1-pTyr317,13.8 µM
same,Kd,[1],28.7 µM
same,Kd,[2],15 µM
same,Kd,Shc1-pTyr239,6.17 µM
same,Kd,EGFR-pTyr1086,33.5 µM
Src SH2 TrM (superbinder),Kd,VCP-pTyr805-tail7,1.2 µM
